Measured values taken from US9308238B2, “Compositions and methods for modulating EMT and uses thereof” (Whitehead Institute for Biomedical Research, priority 2010, dated 2016).

B1: SFRP1: Recombinant human SFRP1 protein (R&D Systems), secreted decoy receptor binding canonical and non-canonical Wnt ligands (protein, UniProt Q8N474 32-314, looked up)
Secreted frizzled-related …: SEYDYVSFQSDIGPYQSGRFYTKPPQCVDIPADLRLCHNVGYKKMVLPNLLEHETMAEVKQQASSWVPLLNKNCHAGTQVFLCSLFAPVCLDRPIYPCRWLCEAVRDSCEPVMQFFGFYWPEMLKCDKFPEGDVCIAMTPPNATEASKPQGTTVCPPCDNELKSEAIIEHLCASEFALRMKIKEVKKENGDKKIVPKKKKPLKLGPIKKKDLKKLVLYLKNGADCPCHQLDNLSHHFLIMGRKVKSQYLLTAIHKWDKKNKEFKNFMKKMKNHECPTFQSVFK
B2: BMP4: Recombinant BMP4 protein obtained from Stemgent (protein, UniProt P12644 293-408, looked up)
Bone morphogenetic protein 4: SPKHHSQRARKKNKNCRRHSLYVDFSDVGWNDWIVAPPGYQAFYCHGDCPFPLADHLNSTNHAIVQTLVNSVNSSIPKACCVPTELSAISMLYLDEYDKVVLKNYQEMVVEGCGCR

Experiments:
Assay type in all cases: cell-based, human
HMLE-iEMT-a cells [1] = assay: Mammosphere assay, iEMT-cells; details: SFRP1 1 μg/ml/d, BMP4 0.5 μg/ml/d; extent comparable to HTwist and MSP cells
Method: (§1) FIGS. 5A-5H. Concomitant stimulation of Wnt and TGF-beta pathways allows HMLE^24+ cells to enter into a mesenchymal and SC-like state. (FIG. 5A) RT-PCR: N-Cadherin, Zeb1 and Zeb2, L32 was loading control, n=3. Prior RNA isolation, HMLE^24+-shGFP or -shSFRP1 (stable knockdown of SFRP1, FIG. 12A) cells were treated for 3 days with daily doses of indicated factors: anti-DKK1 antibody (10 μg/ml), anti-E-Cadherin antibody (1 μg/ml), TGF-beta 1 (5 ng/ml), Wnt5a (250 ng/ml), (FIG. 5B) Brightfield microscopy: images of control, TGF-beta- and iEMT-cocktail treated HMLE^24+ cells after 14 days of treatment as indicated (see also FIG. 12D). (FIG. 5C) RT-PCR: Zeb1, Zeb2, E-Cadherin and N-Cadherin, L32 was loading control, n=3. After 14 day treatment, cells were expanded in absence of further stimulation for 4 passages. Shown are PBS-treated control HMLE^24+-shGFP and HMLE^24+-shSFRP1 cells, two HMLE^24+-shGFP cultures treated with TGF-beta 1 (TGF-β-a and -b), two HMLE^24+-shSFRP1 cultures treated with the iEMT-cocktail (iEMT-a and -b). […] (FIG. 5G) Lung metastasis: cells expanded for 8 passages after cessation of treatment as described in (C) were transformed with RAS; 1.0×10^5 cells were injected into the mammary fat pads of mice; GFP-labeled metastases on the surface of the lungs were quantified; *control vs. all other groups, p<0.05, n=5 mice/group. […]

HMLE-iEMT-a cells [2] = assay: Boyden chamber migration assay, iEMT-cells; details: SFRP1 1 μg/ml/d, BMP4 0.5 μg/ml/d; extent comparable to HTwist and MSP cells
Method: as §1

MSP-RAS cells = assay: Tumorsphere assay, MSP-RAS cells; details: for reduction of primary tumorsphere formation: SFRP1 1 μg/ml, BMP4 0.5 μg/ml daily during primary sphere formation; for reduction of secondary tumorsphere formation: treated during primary sphere formation only
Method: FIGS. 4A-4G. Autocrine Signaling controls tumorigenicity and metastasis of MSP-RAS cells. (FIG. 4A) Migration assay: RAS-transformed MSP (MSP-RAS) were seeded in Boyden Chamber migration assays and recombinant SFRP1 (1 μg/ml) and BMP4 protein (0.5 μg/ml) were added; *control vs. single treatment, p<1×10^−8, **single vs. double treatment with SFRP1 and BMP4 (S+B), p<1×10^−4, n=3. (FIG. 4B) Tumorsphere assay: SFRP1 (1 μg/ml) and BMP4 protein (0.5 μg/ml) were added daily during primary sphere formation (5 days), spheres were dispersed and seeded for secondary sphere formation in the absence of further treatment; #control primary vs. secondary sphere formation, p=0.001; *control vs. single treatment, p<1×10^−4, **single vs. double treatment with SFRP1 and BMP4 (S+B), p<0.01, n(tumorspheres)/1000 cells, n=6. (FIG. 4C) Flow cytometry: CD44 and CD24 cell-surface markers of dissociated primary tumorspheres as described in (B). (FIG. 4D) Orthotopic tumor formation after ex vivo treatment during tumorsphere formation: primary tumorspheres as generated in (B) were pooled, dissociated and 1.0×10^5 cells were implanted in the fat pads of mice; shown are tumor weight and incidence, *indicates absence of tumor, n=5 mice/group. (FIG. 4E) Lung metastasis: fluorescence microscopy images of the major left lung lobe showing GFP-expressing metastatic nodules and quantification of the number of lung surface metastases; *control vs. SFRP1 treatment, p<0.05, **SFRP1 vs. BMP4 or double treatment (S+B), p<0.05, n=5 mice/group. (FIG. 4F) Liver metastasis: fluorescence microscopy images of the liver surface showing GFP-expressing micro-metastatic nodules after implantation of cells as described in (D) and quantification: 5 fields of liver surface were counted per mouse, *control vs. single treatment, p<0.05, **single vs. double treatment (S+B), p<0.05, n=5 mice/group. (FIG. 4G) Tumorigenicity assay: MSP-RAS cells suspended in PBS containing SFRP1 (1 μg/ml), BMP4 (0.5 μg/ml), and a combination of both (S+B) were implanted subcutaneously in mice at indicated cell numbers. In addition, 20 μl of PBS or PBS with proteins at indicated doses was injected peri-tumorally at 1, 2, 3 and 7 days after implanting the MSP-RAS cells.
Mammosphere and tumorsphere assay. Assays were performed as previously described with modifications (Dontu et al., 2003): 1000 cells/well were seeded in 96-well ultra-low adhesion plates (Corning) in MEGM medium containing 1.3% methylcellulose (Stem Cell Technologies) supplemented with 20 ng/ml EGF, 10 ng/ml bFGF (both Sigma) and B27 (Gibco). Primary spheres were dissociated by trypsinization and replated for secondary sphere formation after a period of 5-7 days.

| Molecule | effect on mammosphere formation of iEMT-cells (HMLE-iEMT-a cells [1]) | effect on migration of iEMT-cells (HMLE-iEMT-a cells [2]) | reduction of primary tumorsphere formation (MSP-RAS cells) | reduction of secondary tumorsphere formation (MSP-RAS cells) |
| --- | --- | --- | --- | --- |
| B1 | inhibited | inhibited | 40% | 40% |
| B2 | inhibited | inhibited | 40% | 40% |
